# From the DeepSol protein solubility set
# Assay: soluble on expression in E. coli; label from the status in PepcDB or PDB records
row,Sequence,soluble on expression in E. coli
1,MGSDKIHHHHHHMAKVEELTPQQLSETDLKPRGRVYPSPISWRDQFLYQLVLDRFSDDNENQRELFDHTNLAKFQVKDKAGWMAAGTKFVGGTLRGIKSKLDYLQRLGVTTLWINPPWQQRSELEAYHSDRIQEFLDIDPHFGTRQDLRDLIDAAHDRRMYVILDVIYNQNADNWFHRNDVIAALARVYQYWIALSDCDGLRIDSLKHVSPEDSRKFCTAIREYAESIDKDNFLLTGEITSGSMAGAYIDIIARNFSAVLDIAQTPNELAAFAKGLVHPKQFFDLYSENNLAGEYRQIGTYHVSILDDYEMSFRTNKQRFAAYSNVPHLYEQVAHAVGVQLTMPGIPAIYYGTEQAFDGNEGYHDYSIEGRKFAEDRYIKEAMFGGAFGAFQTADCHFFDIDHPTYLRIAAIARIRNSHDKIGKALRRGHHYLRETSFFNSPFSIPGQGELVAWSQTLFDTEVLMVLNTNGLENRGAEVTVDTYMHPQDSTMTFLYKSDWSDSYLRHPPRDQTVAVQHHNDRRATVRIDLPPSGMAILA,not soluble
2,MARYTKEDIFRLAKEENVKYIRLQFTDLLGVIKNVEIPVSQLTKALDNKMMFDGSSIEGFVRIEESDMYLYPDLDTWVIFPWTAEKGKVARLICDIYNADGTPFEGDPRNNLKRVLKEMEALGFSDFNLGPEPEFFLFKVDEKGNPTLELNDNGGYFDLAPMDLGENCRRDIVLELEEMGFEIEASHHEVAPGQHEIDFKYANAIRSCDDIQTFKLVVKTIARKHGLHATFMPKPLYGVNGSGMHCNLSLFKNGENVFFDQNGDLQLSDDARHFIAGILKHAPAFTAVANPTVNSYKRLVPGYEAPCYVAWSAQNRSPLVRIPASRGISTRVEVRSVDPAANPYLVMATLLAAGLDGIKNKLTPPAAVDRNIYVMTKEEREEAGIVDLPATLAQALVTLQSNEVISNALGDHLLEHFIEAKEIEWDIFRTQVHQWERDQYMSLY,not soluble
3,MGSDKIHHHHHHMQLNPSLIPHSSEQHVDWEKALHGGNDALLTQLAADDDPAAALLELESYINGIYRGSPSPLSKPLPDIRLEVRRALPYVDEIRDRLGWQVRDFDLGLLRLIRGSSTLSPVLGAGVSMDAGAPSWPELVRLMLEETLDKGLEFYESVPAADNPAQPPIEFLPDGTVRTGGTGTWRFEQRVSEVKRYTAEQEQTARNVLAEVKAKGSSTDVETLMHGAQVCYDLCGQHLFRLLTKIIYTRAKEPSEVHRVIAELAQAQEVPVRGPGLFPGWDSIITYNIDALMSEALAEQKIPHAAWAMKGDKLRGNPDELAQKSSWHEPIFHLHGFSPRRLFMITNVRFVFSTSQYLTTYKGPRSRILEAVYDEFLANPVRIALYIGCSFADEAMNGLLREAFAEYPGRYHYALLKWPRDRKGKEPDRSEIAAESAKYLEFGVRPIWFDDFAELPGLIRQLQ,not soluble
4,MGSDKIHHHHHHMNKHFTFTINSICLDENYHPSDKTRITTNFANLARGSHRQANLRNALKMIDNSFNALAHWDNPKGDRYSVELEIISVNLDIDGSGQTFPSIEVLKTNIVDHKTNKRIEGIVGNNFSSYVRDYDFSVLLAEHNKGQAKFSIPDDFGGLHGKLFQSFVNSDAYKQNFNKPPVICLSVSDNKTYHRIENQHPVLGVEYQPNESSLTEQYFKKMGLQVRYFMPPNSVAPLAFYFFGDLLNDYTHLELISTISTMGTFQKIYRPEIYNANAVAGKCYQPNLKNLDHSLTQIVYDRAERSQLANEQGKFAAEHFIKPYQTFFEQWPANYL,not soluble
5,ILGIKTLLAVYRLFGRKAFDLILKLVMRYYHFTGKSAREASEIYLQNLQRYAAQQNIALPKQLDSYHHLLSFGRTMLDKLAAWQGDFNVDNLTIHGQHHFEEMAQKKQGVLILGSHLGNIELCRALGRRHSHVKINALVFTQHAEQFNAVMKAVNPNSELNLIQVSSMGPDTAILLQQKIEQGEWVVIVGDRTSTSKENRVVWADFLGKPAPFPQGPFMLASVLKAPVYLLFGLRDDEANTPHFNVYFEHFSDQITLPRKERQQALEHVVQQYAHRLEHHTLQAPLQWYNFFNFWTLSNQPHDKQQ,not soluble
6,MLDTAAIIISQGKKIAYAYAEGVNDNMTQSHFHDFFELYYLLEGERMHMIEGEIYHLTANDFVLFPPHIMHHSYGEKDMPFKRIVLYFSPDLIANDTICQLLSEKELLFVNEGYIPNQILSLLLSLTHEIDVPGKYHDAYICNQLNGLLLNMLRLDFEAVKSIPKTRSAKAVDYIHNHYMEDISVNQLAEILYVSPYHLCHEFKNATGKTIIQYLNTTRILHAQRLMLETDYNITQISREVGFSNLTHFNRTFKKITGVAPREKKKLYQK,not soluble
7,MNTKFLGKTLVASALVLTTLGTGLHSSYLGLDTNKVVKTAKAEEKMTDGQLWKKVKDSLHDSDIILSNEYETINVTYLLSNGYSSSVSAPGNDDGGHLTQSIDFKGLKQIDLTKENVYDDFNKKLDAKNTWNSLTEKLKGLGLLQNGQKVSIYSSDSSSPVSGKVGEGVTSGGENTLTKRFINKITID,not soluble
8,MTDLTGILYIVATPIGNLQDITQRALETFAQVDLIAAEDTRHSGLLLSHYGIKKPFFALHDHNEQEKAHILVEKLKQGSNIALISDAGTPLISDPGFHLVRQCREAGIRVVPLPGACAAITALCASGIASDRFCFEGFLPAKSKARKDKLENIAEEDRTLIFYESTHRILDTLEDMQAVLGEERYIVLAREMTKTWETITGNTIKNLREWLLEDPNRTKGEMVLIVEGKPKSDNNDEISPQAVKALELIAEELPLKKAAAIVAELYGYKKNALYQFGLAHLEK,not soluble
9,MPSCDPGPAPACLPTKTFRSYLPRCHRTYSCVHCRAHLAKHDELISKSFQGSHGRAYLFNSVVNVGCGPAEQRLLLTGLHSVADIFCESCKTTLGWKYEQAFETSQKYKEGKYIIEMSHMVKDNGWD,soluble
10,MNLVPPKEEENLIVFNKQLGEDRRIVMSRSNLNELLKALEENELLCTDLYQVNTDGVILTKQRAEKVIGWARNHYLSSCPSPSIKEGRLILPRESIEISVKRLKAQEDISRKPTQNLKRFLFLQNIAKDEFETNFVSAVVAPGEIGVKFDDIGALEHVKKTLNELVILPMRRPELFTRGNLLRPCKGILLFGPPGTGKTLLAKALATEAGANFISITGSTLTSKWFGDAEKLTKALFSFASKLAPVIIFVDEVDSLLGARGGAFEHEATRRMRNEFMAAWDGLRSKDSQRILILGATNRPFDLDDAVIRRLPRRIYVDLPDAENRLKILKIFLTPENLETGFEFDKLAKETEGYSGSDLKNLCIAAAYRPVQELLQEENKDSVTNASPDLRPLSLDDFIQSKAKVSPSVAYDATTMNELRKWNEQYGEGGTRTKSPFGF,soluble
11,MSSQVEHPAGGYKKLFETVEELSSPLTAHVTGRIPLWLTGSLLRCGPGLFEVGSEPFYHLFDGQALLHKFDFKEGHVTYHRRFIRTDAYVRAMTEKRIVITEFGTCAFPDPCKNIFSRFFSYFRGVEVTDNALVNIYPVGEDYYACTETNFITKVNPETLETIKQVDLCNYVSVNGATAHPHIENDGTVYNIGNCFGKNFSIAYNIVKIPPLQADKEDPISKSEIVVQFPCSDRFKPSYVHSFGLTPNYIVFVETPVKINLFKFLSSWSLWGANYMDCFESNETMGVWLHIADKKRKKYINNKYRTSPFNLFHHINTYEDHEFLIVDLCCWKGFEFVYNYSYLANLRENWEEVKKNARKAPQPEVRRYVLPLNIDKADTGKNLVTLPNTTATAILCSDETIWLEPEVLFSGPRQAFEFPQINYQKYGGKPYTYAYGLGLNHFVPDRLCKLNVKTKETWVWQEPDSYPSEPIFVSHPDALEEDDGVVLSVVVSPGAGQKPAYLLILNAKDLSEVARAEVEINIPVTFHGLFKKS,soluble
12,TLQIQFKKYELPPLPYKIDALEPYISKDIIDVHYNGHHKGYVNGANSLLERLEKVVKGDLQTGQYDIQGIIRGLTFNINGHKLHALYWENMAPSGKGGGKPGGALADLINKQYGSFDRFKQVFTETANSLPGTGWAVLYYDTESGNLQIMTFENHFQNHIAEIPIILILDEFEHAYYLQYKNKRADYVNAWWNVVNWDAAEKKLQKYLTK,soluble
13,MGSDKIHHHHHHMRTLKVLHLASFDGNIGDNANHNGVRFLWKKYLPEYDFAITPLEMREYFWKWKSFDDGFADMVNEYDLFVCGGGNYFELWVQSSPTGTSVAIPLEVLRKIKTPCLFYALGLDPYMGAPDICIERFKRFLDYTLASPQFLVSVRNDGSLDSARRVLGGEYADRIHLMPDGGHFVQPEACTHYELTPGARTIGVNLAGDMLDFRFKSCNGKNLNDFKRSTAAVLCDIMRRMPDVNLIFYPHIHKDYSFLADFICGIDDHLLRRRITVAPYLHGQGAERKFFDLYRQCALNIGTRLHANICSVGLKTPSIGIVTHEQIHELYGYYGMAERALRFSDDNYAAKLDDLISDSLENTERISCRYSDVMSMVTKDAERFLGIMNCWLDSVV,not soluble
14,MELLCPAGNLASLKSALQAGADAVYLGLKDDTNARSFAGLNFTPAKLQEAAELTHQRGKKIFLTLNTFPKPNEEHRWYQAIDLAAKIGVDALIVADLSLLDYAHRQYPHIPLHLSVQASATNLGALSFYKEAFNVSRVVLPRVLSMKQVRDLAKVSPVDLEVFAFGSLCIMAEGRCHLSSYVTGQSPNTGGSCSPAKHVRWQEQGQDRLTWLNEVLIDKSGLDEQMGYPVVCKGRYLTQEDDKPQYLLESPTSLNTLSLLPELAKAGIVSLKIEGRQRSPAYVEQVTKVWRQAIDTYLNHPDKFQTQAHWEQALAKVSEGQITTLGAYERNWQ,not soluble
15,MGSDKIHHHHHHMSKSEQISHMTDVMAKFVGYTGKVLPDDVTAKLEDLHKKETSKLADVIFTTMIENQRLAKELDRPSCQDTGVIQFLVECGTNFPLIGELEALLREAVIKATVDSPLRHNSVETFDEYNTGKNVGKGTPTVFWEIVPNSDQCSIYTYMAGGGCSLPGKAMVLMPGAGYEGVTRFVLDVMTSYGLNACPPLLVGVGVATSVETAALLSKKALMRPIGSHNENERAASLEKMLEDGINKIGLGPQGMSGNTSVMGVNIENTARHPSTIGVAVNVGCWSHRKGHIVFDAALNYTITSHSGVNF,not soluble
16,KYPFLREAGSSFKDRDVTKMSDLIATWDGQDIKGPALIGVPLSKSSISHSGASFAPGTIRQALKHSSAYSAELGEHVVSELLYDLGDIDIHVTDIVKSHHHIFQTMHALLSDHPDWVPLILGGDNSISYSTIKAIAQTKGTTAVIQFDAHHDVRNTEDGGPTNGTPFRRLLDEEIIEGQHLIQLGIREFSNSQAYEAYAKKHNVNIHTMDMIREKGLIPTIKEILPVVQDKTDFIFISVDMDVLDQSHAPGCPAIGPGGLYTDELLEAVKYIAQQPNVAGIEIVEVDPTLDFRDMTSRAAAHVLLHALK,not soluble
17,MGSDKIHHHHHHMKRPLKVLVVGAKFGELYLNSFLLEQPGLQLAGLLANGSPRARALANAFGIALYTDIEQLPDDLDIACVVVRSAVVGGAGGQLTESLLRRGLHVIQEHPVHPDELVRHQQLATRMGCQYIVNSFYPHTEAGRCWAGTAQRISRLLEGRKPNLAQLTTSRQLLYSGLDLLFQALGCDLARQVSVSLLDGDDDFHTLSLNLPDSRVLLRLQRWMAADDPDLHSLVMHQLNLAWPSGYLSLDATYGPVNWTPALHAEAHDDDRQTLYTSNADYLQHATAMPLHPAASHWRSAHEIEGPAGVGWLLQQLLAVLQGRPRADGLQADYQLAVARLWQDILRCAGPAEQRMASAPLFIDAAQLRAEG,not soluble
18,MTVWDRPEPPHRPVPLDRERIVAAAVALADEGGLTAVSVRKVAARLDAGPMRLYGFISTKDELFDLMVDAVYAEILPEERAGDWREALRVLAHRTRQAALRHPWLADLLGGRPALGPNGLAVAEATLAALDGLADVDTVMRAVETVSSYFTGAVRREIADLRAERATGLSKPEWQREHGPHLTRMLATGRYPALAKAVHDGTHVDAEESFATGLDWVLDAVAVRLARPPGS,not soluble
